B1: MtmW (enzyme, Streptomyces argillaceus, UniProt Q194Q1 1-326, looked up)
chain: MVAVEFRSLGRSGLSVSEIVYGNLLYPQDDTPDEVVLSSIRAALDAGVTTFDTADVYGMFRSESLLGRALAGTPREELVLCTKVGMPTGFGPNGRGLSRKHVMESVDGSLRRLRVDHIDVYTAHRYDPATPLEELMWTFSDLVRAGKILYVGMSEWPVERIAEAAGIGARLGVPVICHMPRYSMLWRAPEAEVIPACRDLGIGQICYFTLEQGVLTGKYAPGAPPPAGSRATAPKGGRAPLMRRWLDDDKVLGRVERLRPLAEEAGLTTAHLAWVLQNPAVSGAVIGSFNAEQVLANAESAGVRLETDLLVRIDEVLGDSVVHDEE
B2: MtmW (ΔN3) (enzyme, Streptomyces argillaceus, UniProt Q194Q1 4-326, looked up)
chain: VEFRSLGRSGLSVSEIVYGNLLYPQDDTPDEVVLSSIRAALDAGVTTFDTADVYGMFRSESLLGRALAGTPREELVLCTKVGMPTGFGPNGRGLSRKHVMESVDGSLRRLRVDHIDVYTAHRYDPATPLEELMWTFSDLVRAGKILYVGMSEWPVERIAEAAGIGARLGVPVICHMPRYSMLWRAPEAEVIPACRDLGIGQICYFTLEQGVLTGKYAPGAPPPAGSRATAPKGGRAPLMRRWLDDDKVLGRVERLRPLAEEAGLTTAHLAWVLQNPAVSGAVIGSFNAEQVLANAESAGVRLETDLLVRIDEVLGDSVVHDEE

Columns and labels:
[1] = target: the molecule itself; experiment: SEC
[2] = target: the molecule itself; experiment: AUC
[3] = target: the molecule itself; experiment: crystal structure

Protein | stoichiometry N [1] | stoichiometry N [2] | stoichiometry N [3]
B1 | ~8 | 8 | –
B2 | – | – | 8

From paper PMC6940538 (Angewandte Chemie (International ed. in English), 2019)
